Changes are numbered by the printed parent chain.
T1: α-fructosyl-valyl-histidyl-leucyl-threonyl-prolyl-glutamyl-glutamyl-lysine (not fully specified)
T1 chain: VHLTPEEK

B1: CFP-T7-H38-V (protein)
chain: MTSNRADTRVIVVGGGGTIGSSTALHLVRSGYAPANITVLDTFEIPSAQSAGHDLNKIMGIDHVNKVNLQMSLEARQMWKEDELFQPFFHNTGRMDCEHTPKGIEKLKKLYQKLHDAGAGLEKTHAWLDNEDEILSKMPLLQRDQIQGWKAIWSQDGGWLAAAKAINAIGQFLKERGVKFGFGGAGSFKQPLFDDEGTTCIGVETADGTKYYADKVVLAAGAWSPTLVDLEDQCCSKAWVYAHIQLTPEEAAEYKGVPVVYNGEFGFFFEPDEFGVIKVCDEFPGFSRFKEHQPYGAPSPKRISVPRSHAKHPTDTYPDASEVSIKKAIATFLPRFQDKELFNRALCWCTDTADSTLLMCEHPKWKNFILATGDSGHSFKILPNVGKYVVELIEGRLPEEMAYQWRWRPGGDALKSRRAAPPKDLADMPGWKHDPKL
B2: CFP-T7-H38-I (protein)
chain: B1 chain with V64I
B3: CFP-T7-H38-L (protein)
chain: B1 chain with V64L
B4: CFP-T7-H38-M (protein)
chain: B1 chain with V64M
B5: CFP-T7-H38-S (protein)
chain: B1 chain with V64S
B6: CFP-T7-H38-T (protein)
chain: B1 chain with V64T
B7: CFP-T7-H38-GY (protein)
chain: B1 chain with V64G, L110Y
B8: CFP-T7-H38-GF (protein)
chain: B1 chain with V64G, L110F
B9: CFP-T7-H38-GH (protein)
chain: B1 chain with V64G, L110H
B10: CFP-T7-H38-GYS (protein)
chain: B1 chain with V64G, H99S, L110Y
B11: CFP-T7-H37 (protein)
chain: B1 chain with V64R
B12: PnFX-62D/63H/106K/110L/113K/351S (protein)
chain: MAPSRANTSVIVVGGGGTIGSSTALHLVRSGYTPSNVTVLDAYPIPSSQSAGNDLNKIMGVDHRNPVDLQLALEARQMWNEDELFKKFFHNTGRLDCAHGEKDIAKLKSLYQKLVDAGLDATNEWLDSEDEILKRMPLLSRDQIKGWKAIFSKDGGWLAAAKAINAVGEYLRDQGVRFGFYGAGSFKAPLLAEGVCIGVETVDGTRYYADKVVLAAGAWSPTLVELHEQCVSKAWVYGHIQLTPEEAARYKNSPVVYNGDVGFFFEPNEHGVIKVCDEFPGFTRFKMHQPFGAKAPKRISVPRSHAKHPTDTIPDASDVSIRRAIATFMPQFKNKKMFNQAMCWCTDTADSALLICEHPEWKNFVLATGDSGHSFKLLPNIGKHVVELLEGTLADDLAHAWRWRPGSGDALKSRRSAPAKDLADMPGWNHDKPRANL
B13: PnFX-62D/63H/106K/110L/113K/351S-64S (protein)
chain: B12 chain with R64S
B14: CcFX-62D/63H/102K/106K (protein)
chain: MAPSRANTSVIVVGGGGTIGSSTALHLVRSGYTPSNITVLDTYPIPSAQSAGNDLNKIMGIDHRNKVDLQLSLEARQMWREDDLFKEYFHNTGRLDCAHGEKGLAKLRQAYQALLDANAGLEETTEWLDSEDEILKKMPLLDREQIKGWKAVYSQDGGWLAAAKAINAIGEYLRAQGVKFGFGGAGSFKQPLLAEGVCIGVETVDGTRYYADKVVLAAGAWSPVLVDLEDQCVSKAWVYAHIQLTPEEAAEYKNVPVVYNGDVGFFFEPDEHGVIKVCDEFPGFTRFKQHQPYGAKAPKRISVPRSAAKHPTDTYPDASEKSIRKAIATFLPKFTEKELFNRHLCWCTDTADAALLMCEHPEWKNFVLATGDSGHTFKLLPNIGKHVVELLEGTLAEDLAHAWRWRPGTGDALKSRRAAPAKDLADMPGWKHDDVVKSKL
B15: CcFX-62D/63H/102K/106K-64L (protein)
chain: B14 chain with R64L
B16: CcFX-62D/63H/102K/106K-64T (protein)
chain: B14 chain with R64T
B17: NvFX-62D/63H/106K/110L (protein)
chain: MTTPRKETTVLIIGGGGTIGSSTALHLLRAGYTPSNITVLDTYPIPSAQSAGNDLNKIMGIDHRNKVDLQLSLEARDMWRNDALFRPFFHNTGRLDCESSAEGVEKLRRLYQKLVEAGVGLEETHEWLDSEEAILEKAPLLQREEIEGWKAIWSEEGGWLAAAKAINAIGEELQRQGVRFGFGGAGSFKRPLFADDGTTCIGVETVDGTQYHADKVVLAAGAWSPALVDLEEQCCSKAWVYAHMQLTPEEAAVYKGCPVVYHGDVGFFFEPNENGVIKVCDEFPGFTRFKQHQPYGAPAPKPVSVPRSHAKHPTDTYPDASEESIKRAVSTFLPRFKDKPLFNRALCWCTDTADSALLICEHPRWKNFILATGDSGHSFKLLPIIGKHVVELVEGRLADDLAEAWRWRPGQGDARKSIRAAPAKDLADMPGWKHDQDSESR
B18: NvFX-62D/63H/106K/110L-64M (protein)
chain: B17 chain with R64M
B19: NvFX-62D/63H/106K/110L-64S (protein)
chain: B17 chain with R64S
B20: NvFX-62D/63H/106K/110L-64T (protein)
chain: B17 chain with R64T
B21: CFP-T7-H38-G (protein)
chain: B1 chain with V64G
B22: CFP-T7-H38-A (protein)
chain: B1 chain with V64A
B23: CFP-DH2 (protein)
chain: MTSNRADTRVIVVGGGGTIGSSTALHLVRSGYAPANITVLDTFPIPSAQSAGHDLNKIMGIDHRNKVNLQMSLEARQMWKEDELFQPFFHNTGRMDCEHTPKGIEKLKKLYQKLHDAGAGLEKTHAWLDNEDAILSKMPLLQRDQIQGWKAIWSQDGGWLAAAKAINAIGQFLKERGVKFGFGGAGSFKQPLFDDEGTTCIGVETADGTKYYADKVVLAAGAWSPTLVDLEDQCCSKAWVYAHIQLTPEEAAKYKGCPVVYHGEFGFFFEPDEFGVIKVCDEFPGFSRFKEHQPYGAPSPKRISVPRSHAKHPTDTYPDASEVSIKKAIATFLPRFKDKPLFNRALCWCTDTADSTLLMCEHPKWKNFILATGDSGHSFKILPNVGKYVVELIEGRLPEEMAYQWRWRPGGDALKSRRAAPPKDLADMPGWKHD
B24: CFP-DH3 (protein)
chain: B23 chain with R64G

Target: T1, α-fructosyl-valyl-histidyl-leucyl-threon …

| Protein | Specific activity (mU/mg), 10 µM αF8P | also measured |
| --- | --- | --- |
| B1 | 86 mU/mg |  |
| B2 | 78.7 mU/mg |  |
| B3 | 84.3 mU/mg |  |
| B4 | 84.4 mU/mg |  |
| B5 | 89.7 mU/mg |  |
| B6 | 78.7 mU/mg |  |
| B7 | 174 mU/mg |  |
| B8 | 145 mU/mg |  |
| B9 | 143 mU/mg |  |
| B10 | 196 mU/mg |  |
| B11 | 44.4 mU/mg | Specific activity (U/mg), 1 mM αF8P: 4.18 U/mg |
| B12 | 2 mU/mg |  |
| B13 | 2.2 mU/mg |  |
| B14 | 1.3 mU/mg |  |
| B15 | 2 mU/mg |  |
| B16 | 1.5 mU/mg |  |
| B17 | 0.3 mU/mg |  |
| B18 | 0.42 mU/mg |  |
| B19 | 0.37 mU/mg |  |
| B20 | 0.38 mU/mg |  |
| B21 | 95.9 mU/mg | Specific activity (U/mg), 1 mM αF8P: 6.33 U/mg; fold improvement of specific activity on αF8P against CFP-T7-H37: by 1.51 to 1.75 times |
| B22 |  | Specific activity (U/mg), 1 mM αF8P: 3.26 U/mg |
| B23 |  | Specific activity (U/mg), 1 mM αF8P: 2.8 U/mg |
| B24 |  | Specific activity (U/mg), 1 mM αF8P: 4.9 U/mg; fold improvement of specific activity on αF8P against CFP-DH2: by 1.51 to 1.75 times |
